This is an account of results in publication PMC6726633, “Different Grp94 components interact transiently with the myocilin olfactomedin domain in vitro to enhance or retard its amyloid aggregation” (Scientific Reports, 2019).

For test [1], the target named is T1, Myocilin olfactomedin domain, residues 228-504 (human), Q99972.
T1 chain: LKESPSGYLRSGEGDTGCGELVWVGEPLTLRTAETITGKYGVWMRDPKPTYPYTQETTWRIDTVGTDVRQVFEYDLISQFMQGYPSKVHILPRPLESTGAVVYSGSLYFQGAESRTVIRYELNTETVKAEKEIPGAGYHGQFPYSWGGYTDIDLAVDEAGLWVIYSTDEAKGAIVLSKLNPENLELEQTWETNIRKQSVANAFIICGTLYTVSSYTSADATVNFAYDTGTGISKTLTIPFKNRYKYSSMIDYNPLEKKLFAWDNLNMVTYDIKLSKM
The experiment in a line: cross-linking; OLF-only control samples of the BS3(d0/d4) cross-linking experiments, PBS; SDS-PAGE and LC-MS. As to conditions: remark: other sources report otherwise.

In test [2] the target is T2, Grp94 Pre-N truncation variant, residues 73-804 (canine) (Canis lupus familiaris, UniProt P41148 73-804).
T2 construct: C-terminal 6xHis tag is non-cleavable; not shown: His6, C-terminal, kept
Nature of the test: co-sedimentation; after the ThT aggregation assay (Grp94 construct 3 μM, OLF 30 μM, PBS, 42 °C, up to 96 h): centrifugation 10 min at 17,000 x g; supernatant, wash and pellet on 12% reducing SDS-PAGE, Coomassie, densitometry; only samples containing OLF gave pellets. As to conditions: both partners purified.

For test [3], the target named is T3, Grp94 N-terminal nucleotide-binding domain (including Pre-N), residues 22-337 (human, UniProt P14625 22-337).
T3 construct: Grp94, Homo sapiens, residues 22-337 (STOP codon installed after position 337 on the Grp94FL template); Tag removed with TEV protease; also called N domain; source: E. coli BL21(DE3), purified (HisTrap, SEC, TEV cleavage, SEC); not shown: His6, N-terminal, cleaved
Described as above. As to conditions: both partners purified.

Test [4] has as its target T4, Grp94 Pre-N truncation variant, residues 58-804 (canine) (Canis lupus familiaris, UniProt P41148 58-804).
T4 construct: C-terminal 6xHis tag is non-cleavable; not shown: His6, C-terminal, kept
The test is described as above. To be noted: both partners purified.

For test [5], the target named is T5, Grp94 N and middle domains, residues 22-594 (human, UniProt P14625 22-594).
T5 construct: Grp94, Homo sapiens, residues 22-594 (STOP codon installed after position 594 on the Grp94FL template); Tag removed with TEV protease; also called Grp94NM; NM; source: E. coli BL21(DE3), purified (HisTrap, SEC, TEV cleavage, SEC); not shown: His6, N-terminal, cleaved
The experiment in a line: cross-linking; Grp94N, Grp94NM or Grp94MC:OLF 1:1, OLF 100 μM (dansylated or label-free), PBS, 10 mM BS3(d0/d4) 3 h at 37 °C; SDS-PAGE (Coomassie, dansyl fluorescence), in-gel digestion and LC-MS. As to conditions: both partners purified.

T5 sequence (P14625 22-594): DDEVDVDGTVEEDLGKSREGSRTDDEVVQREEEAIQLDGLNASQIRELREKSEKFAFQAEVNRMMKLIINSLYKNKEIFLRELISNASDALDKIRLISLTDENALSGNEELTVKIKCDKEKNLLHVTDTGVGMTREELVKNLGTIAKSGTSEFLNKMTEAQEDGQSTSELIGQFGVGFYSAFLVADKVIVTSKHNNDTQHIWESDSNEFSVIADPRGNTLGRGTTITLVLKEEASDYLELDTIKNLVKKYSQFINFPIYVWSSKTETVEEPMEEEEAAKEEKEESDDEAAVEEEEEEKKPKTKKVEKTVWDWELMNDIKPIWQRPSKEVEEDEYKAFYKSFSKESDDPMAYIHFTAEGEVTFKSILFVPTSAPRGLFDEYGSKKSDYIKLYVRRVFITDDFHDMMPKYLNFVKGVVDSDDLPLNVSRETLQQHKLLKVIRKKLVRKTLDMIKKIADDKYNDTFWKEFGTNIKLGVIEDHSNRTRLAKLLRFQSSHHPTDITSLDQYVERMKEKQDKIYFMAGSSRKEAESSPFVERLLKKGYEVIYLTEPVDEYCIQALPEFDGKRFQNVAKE
T2 sequence (P41148 73-804, change not shown): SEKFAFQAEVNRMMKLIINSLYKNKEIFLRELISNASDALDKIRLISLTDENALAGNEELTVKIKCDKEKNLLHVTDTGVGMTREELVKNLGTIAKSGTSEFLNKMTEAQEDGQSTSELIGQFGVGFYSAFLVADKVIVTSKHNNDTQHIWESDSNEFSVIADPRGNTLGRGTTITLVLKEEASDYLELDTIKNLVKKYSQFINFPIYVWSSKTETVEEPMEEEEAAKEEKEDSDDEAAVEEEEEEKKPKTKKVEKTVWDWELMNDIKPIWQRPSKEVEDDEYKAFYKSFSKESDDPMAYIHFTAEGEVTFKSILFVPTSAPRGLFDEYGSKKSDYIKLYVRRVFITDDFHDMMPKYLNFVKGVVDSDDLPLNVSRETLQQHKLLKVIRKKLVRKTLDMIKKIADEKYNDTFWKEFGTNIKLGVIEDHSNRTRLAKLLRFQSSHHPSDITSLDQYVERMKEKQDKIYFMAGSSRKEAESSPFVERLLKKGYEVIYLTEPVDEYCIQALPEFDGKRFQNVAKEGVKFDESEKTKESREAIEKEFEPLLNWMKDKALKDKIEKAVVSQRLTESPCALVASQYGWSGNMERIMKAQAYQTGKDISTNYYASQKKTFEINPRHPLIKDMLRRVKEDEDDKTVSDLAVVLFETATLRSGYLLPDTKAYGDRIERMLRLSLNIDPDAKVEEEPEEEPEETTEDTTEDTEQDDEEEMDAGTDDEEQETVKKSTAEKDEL
T4 sequence (P41148 58-804, change not shown): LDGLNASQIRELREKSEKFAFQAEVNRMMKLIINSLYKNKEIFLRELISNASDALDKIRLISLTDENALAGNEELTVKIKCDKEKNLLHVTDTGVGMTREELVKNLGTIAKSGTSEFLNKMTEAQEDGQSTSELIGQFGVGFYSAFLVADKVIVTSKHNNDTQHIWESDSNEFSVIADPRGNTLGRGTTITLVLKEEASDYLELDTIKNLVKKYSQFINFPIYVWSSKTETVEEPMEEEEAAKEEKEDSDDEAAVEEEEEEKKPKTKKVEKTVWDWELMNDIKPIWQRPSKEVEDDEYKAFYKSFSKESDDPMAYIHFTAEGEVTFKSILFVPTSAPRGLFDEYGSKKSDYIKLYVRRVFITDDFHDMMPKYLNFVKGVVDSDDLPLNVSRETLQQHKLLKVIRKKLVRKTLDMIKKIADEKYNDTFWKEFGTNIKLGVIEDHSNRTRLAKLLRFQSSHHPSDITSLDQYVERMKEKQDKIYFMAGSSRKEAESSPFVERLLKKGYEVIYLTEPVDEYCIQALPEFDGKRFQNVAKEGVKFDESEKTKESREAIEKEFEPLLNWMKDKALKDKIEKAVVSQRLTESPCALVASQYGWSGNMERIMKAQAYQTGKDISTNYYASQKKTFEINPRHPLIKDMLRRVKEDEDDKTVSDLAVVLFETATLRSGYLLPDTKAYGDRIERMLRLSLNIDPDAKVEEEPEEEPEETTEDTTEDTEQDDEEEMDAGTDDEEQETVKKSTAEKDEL
T3 sequence (P14625 22-337): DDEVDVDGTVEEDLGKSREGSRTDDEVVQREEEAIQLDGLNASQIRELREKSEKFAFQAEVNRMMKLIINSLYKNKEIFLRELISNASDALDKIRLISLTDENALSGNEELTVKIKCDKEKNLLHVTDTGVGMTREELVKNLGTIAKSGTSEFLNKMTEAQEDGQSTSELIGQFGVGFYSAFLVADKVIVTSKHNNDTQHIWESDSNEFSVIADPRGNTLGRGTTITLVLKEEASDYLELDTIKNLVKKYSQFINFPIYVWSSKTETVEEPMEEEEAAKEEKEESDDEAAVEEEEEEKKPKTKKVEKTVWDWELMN

B1: Myocilin olfactomedin domain, residues 228-504, Q99972 228-504 (domain or fragment)
chain: T1 chain
By stoichiometry N is commonly meant the number of molecules, sites or subunits per partner or assembly. Consider B1, for which, in test [1], the stoichiometry N was 2.

B2: Myocilin olfactomedin domain, residues 228-504 (domain or fragment, human, UniProt Q99972 228-504, looked up)
chain: T1 chain
notes: Myocilin C-terminal olfactomedin (OLF) domain, Homo sapiens, residues 228-504; The results call S233 the N-terminal residue of the OLF construct, though the methods give residues 228-504 and a cross-link at K229 is reported; also called wild-type OLF
Consider B2, for which the binding result in test [2], in test [3], in test [4] and in test [5] was “binds” in each case.

B3: Dansylated myocilin olfactomedin domain (domain or fragment, human, UniProt Q99972 228-504, looked up)
chain: T1 chain
modifications: dansyl (~2 dansyl modifications per OLFd by MS), sites not stated
notes: Myocilin C-terminal olfactomedin (OLF) domain, Homo sapiens, residues 228-504; Same construct as m7, chemically labelled; also called OLFd; dansyl-modified OLF
B3: the binding result in test [5] was “binds”.
